# Paper PMC12475165 (Nature Communications, 2025)
# T1: EDC4 (endogenous, EBOV-infected cells) (UniProt Q6P2E9 1-1401)
# T1 sequence: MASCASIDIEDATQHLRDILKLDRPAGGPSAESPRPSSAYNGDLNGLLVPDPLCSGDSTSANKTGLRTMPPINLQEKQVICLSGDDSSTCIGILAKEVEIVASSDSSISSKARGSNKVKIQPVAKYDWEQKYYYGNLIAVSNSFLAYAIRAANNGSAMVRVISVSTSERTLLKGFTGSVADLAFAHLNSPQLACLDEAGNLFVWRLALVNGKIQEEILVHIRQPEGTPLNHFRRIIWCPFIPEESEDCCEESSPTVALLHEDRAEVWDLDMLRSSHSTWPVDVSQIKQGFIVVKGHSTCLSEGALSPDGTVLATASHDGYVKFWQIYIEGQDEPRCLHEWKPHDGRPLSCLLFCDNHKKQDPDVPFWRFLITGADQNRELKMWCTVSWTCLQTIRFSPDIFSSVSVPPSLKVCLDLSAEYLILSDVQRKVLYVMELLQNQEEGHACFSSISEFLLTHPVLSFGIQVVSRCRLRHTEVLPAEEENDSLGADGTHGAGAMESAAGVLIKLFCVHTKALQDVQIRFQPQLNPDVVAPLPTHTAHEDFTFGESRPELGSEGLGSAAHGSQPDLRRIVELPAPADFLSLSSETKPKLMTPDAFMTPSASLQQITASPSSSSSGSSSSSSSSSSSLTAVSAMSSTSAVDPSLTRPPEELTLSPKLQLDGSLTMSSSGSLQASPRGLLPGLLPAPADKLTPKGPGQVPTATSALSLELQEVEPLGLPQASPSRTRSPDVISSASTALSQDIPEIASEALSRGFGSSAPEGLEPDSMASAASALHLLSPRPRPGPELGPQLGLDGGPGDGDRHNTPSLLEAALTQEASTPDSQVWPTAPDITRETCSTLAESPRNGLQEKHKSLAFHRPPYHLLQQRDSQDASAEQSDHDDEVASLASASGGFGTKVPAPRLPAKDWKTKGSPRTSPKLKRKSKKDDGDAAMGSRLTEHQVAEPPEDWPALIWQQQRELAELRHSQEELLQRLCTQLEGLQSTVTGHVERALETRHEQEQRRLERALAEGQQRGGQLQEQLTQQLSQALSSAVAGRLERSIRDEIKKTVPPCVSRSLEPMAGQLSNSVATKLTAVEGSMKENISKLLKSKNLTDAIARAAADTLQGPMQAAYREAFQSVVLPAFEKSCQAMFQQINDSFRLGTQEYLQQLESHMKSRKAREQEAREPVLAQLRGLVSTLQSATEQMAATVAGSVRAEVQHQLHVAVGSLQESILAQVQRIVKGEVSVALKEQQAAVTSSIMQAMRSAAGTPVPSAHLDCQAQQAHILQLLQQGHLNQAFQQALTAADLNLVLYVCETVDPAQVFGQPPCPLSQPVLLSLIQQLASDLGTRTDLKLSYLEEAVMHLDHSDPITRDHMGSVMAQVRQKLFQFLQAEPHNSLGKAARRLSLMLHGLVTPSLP
# B1: VP35 made by EBOV in infected cells (natural protein)
# chain: MTTRTKGRGHTAATTQNDRMPGPELSGWISEQLMTGRIPVSDIFCDIENNPGLCYASQMQQTKPNPKTRNSQTQTDPICNHSFEEVVQTLASLATVVQQQTIASESLEQRITSLENGLKPVYDMAKTISSLNRVCAEMVAKYDLLVMTTGRATATAAATEAYWAEHGQPPPGPSLYEESAIRGKIESRDETVPQSVREAFNNLNSTTSLTEENFGKPDISAKDLRNIMYDHLPGFGTAFHQLVQVICKLGKDSNSLDIIHAEFQASLAEGDSPQCALIQITKRVPIFQDAAPPVIHIRSRGDIPRACQKSLRPVPPSPKIDRGWVCVFQLQDGKTLGLKI
# Target: T1, EDC4 (endogenous, EBOV-infected cells)
# Experiment: proximity ligation
# Details: partners not purified
binder,measurement,value
B1,"PLA puncta per cell, fold over uninfected cells",6 fold
